In patent publication US20260217779A1 (Chugai, published 2026):
Residue numbers refer to the chain shown, from its start. In names and notes the source's numbering stands.

T1: human CXCR3 (hCXCR3) on Ba/F3 transfectant cells (human, UniProt P49682 1-368)
T1 sequence: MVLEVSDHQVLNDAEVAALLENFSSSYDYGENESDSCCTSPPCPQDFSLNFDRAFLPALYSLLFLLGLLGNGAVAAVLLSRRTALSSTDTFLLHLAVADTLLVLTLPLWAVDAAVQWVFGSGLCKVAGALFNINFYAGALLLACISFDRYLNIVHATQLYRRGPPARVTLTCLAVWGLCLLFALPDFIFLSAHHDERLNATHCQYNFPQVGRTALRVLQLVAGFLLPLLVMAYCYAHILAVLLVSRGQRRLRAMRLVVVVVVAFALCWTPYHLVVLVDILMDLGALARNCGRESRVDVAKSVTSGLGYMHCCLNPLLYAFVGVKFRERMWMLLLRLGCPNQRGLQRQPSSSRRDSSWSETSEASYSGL

B1: hCXCL11.0010-G1T4k.one//VHn-G1T4h.one.H435R (Fc fusion)
chain 1: FKMFKRGRCLCIGPGVKAVKVADIEKASIMYPSNNCDKIEVIITLKENKGQRCLNPKSKQARLIIKKVERKNFEPKSSDKTHTCPPCPAPELRRGPSVFLFPPKPKDTLMISRTPEVTCVVVDVSHEDPEVKFNWYVDGVEVHNAKTKPREEQYNSTYRVVSVLTVLHQDWLNGKEYKCKVSNKGLPSSIEKTISKAKGQPREPQVCTLPPSREEMTKNQVSLWCLVKGFYPSDIAVEWESNGQPENNYKTTPPVLDSDGSFFLYSKLTVDKSRWQEGNVFSCSVMHEALHNHYTQKSLSLSP
chain 2: EPKSSDKTHTCPPCPAPELRRGPSVFLFPPKPKDTLMISRTPEVTCVVVDVSHEDPEVKFNWYVDGVEVHNAKTKPREEQYNSTYRVVSVLTVLHQDWLNGKEYKCKVSNKGLPSSIEKTISKAKGQPREPQVYTLPPSRCEMTKNQVSLSCAVKGFYPSDIAVEWESNGQPENNYKTTPPVLDSDGSFFLVSKLTVDKSRWQEGNVFSCSVMHEALHNRYTQKSLSLSP
B2: hCXCL11.0016-G1T4k.one//VHn-G1T4h.one.H435R (Fc fusion)
chain 1: B1 chain 1 with K2S
chain 2: B1 chain 2
B3: hCXCL11.0012-G1T4k.one//VHn-G1T4h.one.H435R (Fc fusion)
chain 1: B1 chain 1 with K2M
chain 2: B1 chain 2
B4: hCXCL11.0013-G1T4k.one//VHn-G1T4h.one.H435R (Fc fusion)
chain 1: B1 chain 1 with K2N
chain 2: B1 chain 2
B5: hCXCL11.0015-G1T4k.one//VHn-G1T4h.one.H435R (Fc fusion)
chain 1: B1 chain 1 with K2R
chain 2: B1 chain 2
B6: hCXCL11.0011-G1T4k.one//VHn-G1T4h.one.H435R (Fc fusion)
chain 1: B1 chain 1 with K2L
chain 2: B1 chain 2
B7: hCXCL11.0014-G1T4k.one//VHn-G1T4h.one.H435R (Fc fusion)
chain 1: B1 chain 1 with K2Q
chain 2: B1 chain 2

Molecular target: T1, human CXCR3 (hCXCR3) on Ba/F3 …
Assay: cell-based or functional assay

Binder	Activity retention rate at 33 nM	Activity retention rate at 100 nM	Activity retention rate at 300 nM	Luminescence value at 33 nM	Luminescence value at 100 nM	Luminescence value at 300 nM
B1	7%	30%	63%	524000	4.93e+06	7.78e+06
B2	65%	75%	69%	4.95e+06	1.25e+07	8.57e+06
B3	17%	46%	95%	1.33e+06	7.6e+06	1.18e+07
B4	71%	78%	81%	5.49e+06	1.31e+07	1.01e+07
B5	34%	73%	98%	2.62e+06	1.23e+07	1.22e+07
B6	3%	24%	77%	262000	4.02e+06	9.6e+06
B7	105%	89%	60%	8.07e+06	1.48e+07	7.51e+06
